# Reference: the supplement of paper PMC12764529
# ± gives the half width of the 95% confidence interval.
# Tests used:
# [1] = folding stability dG unfold (combined trypsin and chymotrypsin); higher = more stable
# Method: (§1)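 Folding stability of de novo designed mini-proteins (<80 aa, no Cys; designed by TrROS, TrMRF, ProteinMPNN and the joint model) was measured by cDNA display proteolysis with trypsin and chymotrypsin. Each protease was used at 11 concentrations in a threefold dilution series plus a no-protease condition. K50 was inferred by Bayesian fitting of sequencing counts, and dG unfold was derived against a sequence-predicted unfolded-state K50 (Tsuboyama et al. method). Sequences shown include variable-length N-terminal GS-type padding (SAGGSAGG...) inside a display construct carrying a PA tag. Rows were kept only if the AF2 dimer inter-PAE was >15, to exclude likely homo-oligomers.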
# [2] = folding stability dG unfold from chymotrypsin proteolysis; higher = more stable
# Method: as §1
Sequence,folding stability dG unfold [1] [kJ/mol],folding stability dG unfold [2] [kJ/mol]
KDFGITFKSPETIEEIAKKLGPNVVPTDIKKDPKGYVYAKIPTPDGKETDIVIPADKYSYEEAVKFAKEAES [r1_279_TrMRF],-0.971 ± 0.544,0.956 ± 0.669
MKITVTITSLGDKYTMTAEIELPDGTVETITKEFDSPEEAKKYIEKLVKELPPGLVEIEEIKFNPPDGTADS [r1_169_JUSTAS],> 25.1,20.7 ± 2.51
MTEKEIKEKAEEIAKKIAEEKGTEIKSAKIGGYVNVPVKVKEKLDENGKPVFEFEGKKVKVKVEVELKKKKS [r1_91_TrMRF],< -4.18,2.37 ± 1.38
SADPADVDVPLPVVGTAPALTSAPPGARLELVRLPDLGALARVDDGSVVALTVVVNDDGEVLAVAVEPAPSA [r9_1195_TrMRF],1.06 ± 0.276,3.74 ± 0.117
SADPALEAEARARARAEARARGVERLEFELTREVTRESLVRFPGGELREVVERREVRYRVEVEVPPEAASAG [r14_232_JUSTAS],1.53 ± 0.414,4.03 ± 0.322
SADWLSVPFELLEEKPPPADKPLPEGSSAEVVVEDPLRPGEPIKLEVFYFPEKGILILRYEGKEIEIKVGSA [r9_243_JUSTAS],–,2.82 ± 2.05
SAEKVTLTITVKMTEEELKEIAEKVGMKVEITVEKEEDGLYRVTLTFETPEEAEKAREALEKAGYKVEPSAG [r14_745_TrROS_Hall],19.3 ± 0.669,19.1 ± 0.586
SAGDKYRIKMTNPNGKKIEFEIPPNGYIKVRIRNPNNEHEMTIPIPPGETIEEALDNFPPYKISEIEPVSAG [r5_259_TrROS],1.37 ± 0.343,3.33 ± 0.418
SAGEPNKIKVKVKIRMWMPRKDPDGQQAEPHPMPMTFEYKAPWEDAKNIIDSMPPGMQIDKIDKIEPLSAGG [r19_114_TrROS],0.454 ± 1.21,0.947 ± 1.26
SAGESTLELTETSFPDGTTARVTTTRYPGLVRREATVTLPDGTVERLSAEVTLDEDEEVVTTSRSPLPSAGG [r19_385_JUSTAS],-2.79 ± 1.88,-1.03 ± 0.544
SAGGAPAAGDVVETETLRLERDEPDTITLTRLRTVEVVLPDGRVLTRTESETVRLEATDEEAVELAESSAGG [r13_544_TrMRF],1.66 ± 0.586,3.69 ± 0.92
SAGGDPALLLPVERKVTIEYTDEDGKKFTVGDVTVLPSPEILVKIPGTGETIRVPPSVVKKVEEVPESAGGS [r8_410_JUSTAS],< -4.18,-1.9 ± 0.753
SAGGDYDYEKDPNKYRVKERDKNGKILGEKEVEVKPPPIVIDGLPEEDLQEFQDKFPNIPITINPGAISAGG [r13_235_TrROS],< -4.18,-1.13 ± 2.09
SAGGEDFTIRTRSPNGEEQKFPFKVDNVEIEPENNHYSIHIKDGKKLTIPPGGIDDIEPDDIKDWIKDSAGG [r13_925_TrROS],-1.56 ± 0.879,-0.366 ± 1.21
SAGGEELVIEFDSLEDALSAIYPRPDLDKVTLVVPGEGVPVVIPVTVTPPDLGVLGRSAEDRPVPLLGSAGG [r13_183_TrMRF],< -4.18,-3.45 ± 0.837
SAGGEIKIVVSAEELLRKEGKLSEEQRKKLEEALEEAKKLAEEGKEVKVEVEVVPPKPELKPEDKEKKSAGG [r13_731_TrROS_Hall],< -4.18,0.894 ± 0.36
SAGGEITIVIEGMSEEEREKALEEVRNKIKELKEKHPEKKITIVVDTPEAKKVAEELKKEGYEVEILSAGGS [r16_450_TrROS_Hall],12 ± 1.8,8.63 ± 0.628
SAGGGENAPKPIVEPKLVSTFLIDVEPDTYTPEEIAELFKEATGYEIEEVEVEELPDDNTVLVTVVAGSAGG [r13_457_TrMRF],0.371 ± 0.92,1.98 ± 1
SAGGGLARELFEAENLPVVVEEEERDGKPVLRLVVDAGDKPLVFESDGEDVERAVREAARELGLPGLSAGGS [r8_226_TrMRF],1.41 ± 0.628,2.82 ± 0.356
SAGGGMPLEELKDIPENLPPGARVRLRFPETGEEGVYVLREDGGYTVEVPGGVVEAPEDTEVTEIVPSAGGS [r8_162_TrMRF],-0.802 ± 0.711,1.73 ± 0.544
SAGGGMPVPEVEVELLEEREVPGGRVTLGRAKTPDAWETLTTEYDPATGRRRTWRETPEGVTPYAEEGSAGG [r13_445_JUSTAS],< -4.18,-2.37 ± 2.72
SAGGGNPPVLKIELTKTYHPPDGTKVELYRVEHPVEPREIYIVKTYPDDGAEEVKIVKEEELKEALKSAGGS [r8_421_JUSTAS],< -4.18,3.23 ± 1.51
SAGGGPGSVSPQPFEEDYTLPDPGEKIRVKVTAYTLPDGSVVERAVSPEPEREFVFTRDGETVTVTPESAGG [r13_117_JUSTAS],0.485 ± 0.502,2.56 ± 0.368
SAGGGRMIKLTFKSGETKTIPLSSDYPDAKVEVSEKDDKLYITVTYPNGEKITYEFPLSEVESIEILSAGGS [r16_658_JUSTAS],19.6 ± 0.418,18.94 ± 0.176
SAGGSAGGSMYYLIKTKPPDGKEEYIIDPLPPGGSIEDIIPEDLEIEEIKPFKSKEEAEKYLKSAGGSAGGS [r20_18_JUSTAS],–,2.16 ± 1.92
SAGGTIKDLLRELPGFDSVEVDEDSGVIYVRNPDRYYKIEIPVQKQPDDDGKDRPITPVKIEPYPPNSAGGS [r16_65_TrROS],< -4.18,–

Sequence,folding stability dG unfold [1] [kJ/mol],folding stability dG unfold [2] [kJ/mol]
SAGGTVEELLRRVPFVEEAVVDVDSGVAYVRVPDRYYVVRVPLVAEPDEDGVLRPRTPVEVEPFAPESAGGS [r16_65_TrMRF],< -4.18,–
SAGIKIEWDPDEGYIKIEMPYDSPAEANENIQEIHEKFGLKDVTAERDPNNGTVEHTIRIKNPEALKELSAG [r5_598_TrROS],< -4.18,–
SAGITIDELRNQPPKKRVTEVNWNPNQGNYRVEVVRPDPDGKPKKHEYEVNSPQQIRDKLKNGFDYIHISAG [r5_905_TrROS],< -4.18,–
SAGMQTKTLAETKENGKITVTTLTTTESGEETTVTETIEVGPVPIPPLTVEVRLRPDGRLEFEYHIPLSAGG [r19_172_JUSTAS],-3.6 ± 2.13,–
SAGMTTTETIEFPDSTTATVTSVEEGPTPNGTPVTTRTVTVTTYTPLRDADGKLLGEVPQTSTSTLTVASAG [r5_476_JUSTAS],< -4.18,–
SAGMTVEEAAKEAIEKIPPTTKEVEFEIDLGEKPLIVKIENIPDPETNKPIPKVIVEDPDEPKKVEFEISAG [r5_236_TrMRF],–,0.434 ± 0.544
SAGMVIPATSEEEAEAFAKELGPETGYEVEIEKVPADEPVEDVDPNDILVVLPESGTVYRIHVRRPDEESAG [r5_173_TrMRF],< -4.18,–
SAGSASPVVLKLTDPSSDKTYLVEVEVPEEEATWTLRDPSNGKEVEKVKMTLEELYAELKKKGLNPEPLSAG [r5_291_JUSTAS],< -4.18,–
SAGSPADVVPLEIPFVTEDGSRVRATLLYDPATGEVTVPIETEDPALGRRAAAFARRLAEELGAPDVRPSAG [r5_99_TrMRF],< -4.18,–
SAGYELKILKAEVKDGEIDIPILHPDGRPSTARIKVELVEGEDGIPRPVLKIEIPEEELKNSIPPELLKSAG [r5_462_TrMRF],< -4.18,–
SAMLVVKNKKTKKPIEIKIDPSMTPEEIKKKIEKLPDIPEEQKKEVEEAIELYIKLLENPELAKKFEKESAG [r14_732_TrMRF],< -4.18,–
SAPDMQITDVEISEVEKNPDGKRTIEIWMRMDNYTYKATFPADKDGKIKKLSMERDPENNWMRHKIEIDSAG [r14_189_TrROS],–,1.18 ± 1.42
SAPYIRKVTYTTTFYPPDGTPVQSTKPTTEPVDPAEKDTTTTSTTALPDGGSVTTTSTTTVEPAEPALLSAG [r14_268_JUSTAS],< -4.18,–
SASPLVPVETEVLEEETLPDGTLRILTRRTVGDTTILDVRDRGPGGEILRESSSVDTSSNTTTRDVSVLSAG [r14_189_JUSTAS],< -4.18,–
SGINTEYTVTSVGPAGTPVTTELKTKIGNKEYSLTRTYQDPSGSVRLVNWKITSSPSGSSTISETVSPLPSA [r9_255_JUSTAS],< -4.18,–
SGKVVGEKTYPVSDGSEGPAKATRDPDSLTFTITNKKGEVIKTIKVPKNAGVEKVFDIKVSPDEFKGLNLSA [r9_215_JUSTAS],< -4.18,–
SGSMVVVPESDLEAAIATARALVAAGEDTLLFFSPEAREAVQRAVPEVRVEPVPGVPPTPPRPESVARLRSA [r9_639_JUSTAS],< -4.18,–
SMELLEAVKKGVKTVTVLLKPGDEEKVKLAAELPVNIVLKASPEISEEVFKKIPGINLTEVKPLSPEELPSA [r9_671_JUSTAS],< -4.18,–
SMITPEDLEALKAAGVELVSRDPNNRVTLFDPATNTPIELEVEEVPPPPPVTFPGNGPSVEERRAWLERRSA [r9_649_JUSTAS],< -4.18,–
SMTIEELLKKHPNLSAEELAKLIADELKKKLPPGAKITVTVEEKDGKLVLKVEVEVNGKKITIELEIELKSA [r9_805_TrROS_Hall],> 25.1,–
SMTITLEKTLPDGSKVTITIPITKVPGKPLYKATVTVTTTKPGGTPSSKTYTFDFTSEEEAVEKAKEILASA [r9_337_JUSTAS],> 25.1,–
SPPYRATVEMEAPNGEPIGEEEFPIKPGKNLMFMMPAPARVRIEIEDPDEGEPREQEYDPRSGMLHFPLKSA [r9_272_TrROS],< -4.18,–
SRFRISVQHDGKPIDRAEVQDAIHDLMQESGRPITFEELADELAERPNYSVSIERWNPPGKPKGTRTIRVSA [r9_1045_TrROS],< -4.18,–
SSITFPVPKEEKEPDPDGDPHPRREPKPVPIPPDAIRDQIYNMIRTELRDAGLPDMTEEDIDDPEFIDRLSA [r9_263_TrROS],< -4.18,–
SSPPPSITVKSISREPATGTVTIPTSHPSGKHISVEWRSPDGTVTVVPPDKPTATLPAAPDWTLTKISVGSA [r9_113_JUSTAS],< -4.18,–
SSPVVEAIEAEAAARGLPVEVSVSPDENGNPVVPVRVLTPEVLAAGEPRLAERVRPVTTDGRTVTVRVVASA [r9_489_JUSTAS],< -4.18,–
